± gives the standard deviation of the averaged measurements.
Assay: total protein half-life in vivo (active degradation + dilution); higher = more stable protein
[1] = E. coli NCM3722 delta-clpP delta-lon delta-hslV, growth: N-lim chemostat, doubling time 6 h
[2] = E. coli NCM3722 delta-clpP, growth: N-lim chemostat, doubling time 6 h
[3] = E. coli NCM3722 delta-hslV, growth: N-lim chemostat, doubling time 6 h
[4] = E. coli NCM3722 delta-lon, growth: N-lim chemostat, doubling time 6 h
[5] = E. coli NCM3722 delta-smpB, growth: N-lim chemostat, doubling time 6 h
[6] = wild type E. coli NCM3722, growth: C-lim chemostat, doubling time 3 h
[7] = wild type E. coli NCM3722, growth: C-lim chemostat, doubling time 6 h
[8] = wild type E. coli NCM3722, growth: C-lim chemostat, doubling time 12 h
[9] = wild type E. coli NCM3722, growth: N-lim chemostat, doubling time 6 h
[10] = wild type E. coli NCM3722, growth: N-lim chemostat, doubling time 12 h
[11] = wild type E. coli NCM3722, growth: P-lim chemostat, doubling time 6 h
[12] = wild type E. coli NCM3722, growth: P-lim chemostat, doubling time 12 h

| Sequence | total protein half-life in vivo [1] [h] | total protein half-life in vivo [2] [h] | total protein half-life in vivo [3] [h] | total protein half-life in vivo [4] [h] | total protein half-life in vivo [5] [h] | total protein half-life in vivo [6] [h] | total protein half-life in vivo [7] [h] | total protein half-life in vivo [8] [h] | total protein half-life in vivo [9] [h] | total protein half-life in vivo [10] [h] | total protein half-life in vivo [11] [h] | total protein half-life in vivo [12] [h] |
| --- | --- | --- | --- | --- | --- | --- | --- | --- | --- | --- | --- | --- |
| MSTSDDIHNTTATGKCPFHQGGHDQSAGAGTTTRDWWPNQLRVDLLNQHSNRSNPLGEDFDYRKEFSKLDYYGLKKDLKALLTESQPWWPADWGSYAGLFIRMAWHGAGTYRSIDGRGGAGRGQQRFAPLNSWPDNVSLDKARRLLWPIKQKYGQKISWADLFILAGNVALENSGFRTFGFGAGREDVWEPDLDVNWGDEKAWLTHRHPEALAKAPLGATEMGLIYVNPEGPDHSGEPLSAAAAIRATFGNMGMNDEETVALIAGGHTLGKTHGAGPTSNVGPDPEAAPIEEQGLGWASTYGSGVGADAITSGLEVVWTQTPTQWSNYFFENLFKYEWVQTRSPAGAIQFEAVDAPEIIPDPFDPSKKRKPTMLVTDLTLRFDPEFEKISRRFLNDPQAFNEAFARAWFKLTHRDMGPKSRYIGPEVPKEDLIWQDPLPQPIYNPTEQDIIDLKFAIADSGLSVSELVSVAWASASTFRGGDKRGGANGARLALMPQRDWDVNAAAVRALPVLEKIQKESGKASLADIIVLAGVVGVEKAASAAGLSIHVPFAPGRVDARQDQTDIEMFELLEPIADGFRNYRARLDVSTTESLLIDKAQQLTLTAPEMTALVGGMRVLGANFDGSKNGVFTDRVGVLSNDFFVNLLDMRYEWKATDESKELFEGRDRETGEVKFTASRADLVFGSNSVLRAVAEVYASSDAHEKFVKDFVAAWVKVMNLDRFDLL | 4.4 ± 0.59 | 4.3 ± 0.3 | 3.14 ± 0.31 | 3.31 ± 0.44 | 3.68 ± 0.21 | 3.116 ± 0.024 | 5.85 ± 0.14 | 11.8 ± 0.71 | 3.11 ± 0.44 | 3.44 ± 0.15 | 5.34 ± 0.14 | 8.87 ± 0.34 |
| MAGWFELSKSSDNQFRFVLKAGNGETILTSELYTSKTSAEKGIASVRSNSPQEERYEKKTASNGKFYFNLKAANHQIIGSSQMYATAQSRETGIASVKANGTSQTVKDNT | – | 5.5 ± 0.46 | 6 ± 0.94 | 6.31 ± 1.2 | 5.48 ± 0.5 | 3.2 ± 0.24 | 5.83 ± 0.21 | 11.2 ± 0.74 | 5.24 ± 0.059 | 9.51 ± 0.29 | 5.54 ± 0.092 | 11 ± 0.41 |
| MRTTSFAKVAALCGLLALSGCASKITQPDKYSGFLNNYSDLKETTSATGKPVLRWVDPSFDQSKYDSIVWNPITYYPVPKPSTQVGQKVLDKILNYTNTEMKEAIAQRKPLVTTAGPRSLIFRGAITGVDTSKEGLQFYEVVPVALVVAGTQMATGHRTMDTRLYFEGELIDAATNKPVIKVVRQGEGKDLNNESTPMAFENIKQVIDDMATDATMFDVNKK | 5.89 ± 0.069 | – | 6.47 ± 0.16 | – | 5.98 ± 0.26 | 3.33 ± 0.073 | 6.02 ± 0.91 | 10.3 ± 0.9 | 6.07 ± 0.31 | 12.8 ± 0.57 | 5.82 ± 0.2 | 13 ± 0.29 |
| MMDNMQTEAQPTRTRILNAAREIFSENGFHSASMKAICKSCAISPGTLYHHFISKEALIQAIILQDQERALARFREPIEGIHFVDYMVESIVSLTHEAFGQRALVVEIMAEGMRNPQVAAMLKNKHMTITEFVAQRMRDAQQKGEISPDINTAMTSRLLLDLTYGVLADIEAEDLAREASFAQGLRAMIGGILTAS [P0ACT6] | 6.37 ± 1.1 | 5.2 ± 0.53 | 4.39 ± 0.71 | – | 5.56 ± 0.51 | 3.36 ± 0.77 | 6.053 ± 0.026 | – | 4.87 ± 0.49 | 9.35 ± 0.28 | 4.64 ± 0.12 | 10.3 ± 0.2 |
| MSHLDNGFRSLTLQRFPATDDVNPLQAWEAADEYLLQQLDDTEIRGPVLILNDAFGALSCALAEHKPYSIGDSYISELATRENLRLNGIDESSVKFLDSTADYPQQPGVVLIKVPKTLALLEQQLRALRKVVTSDTRIIAGAKARDIHTSTLELFEKVLGPTTTTLAWKKARLINCTFNEPQLADAPQTVSWKLEGTDWTIHNHANVFSRTGLDIGARFFMQHLPENLEGEIVDLGCGNGVIGLTLLDKNPQAKVVFVDESPMAVASSRLNVETNMPEALDRCEFMINNALSGVEPFRFNAVLCNPPFHQQHALTDNVAWEMFHHARRCLKINGELYIVANRHLDYFHKLKKIFGNCTTIATNNKFVVLKAVKLGRRR | 5.55 ± 0.53 | 5.19 ± 0.25 | 5.29 ± 0.23 | 5.64 ± 0.14 | 4.7 ± 0.66 | 3.05 ± 0.51 | 5.87 ± 0.088 | 11.9 ± 1.5 | 5.175 ± 0.041 | 8.16 ± 1.4 | 5.7 | – |
| MNTFSQVWVFSDTPSRLPELMNGAQALANQINTFVLNDADGAQAIQLGANHVWKLNGKPDDRMIEDYAGVMADTIRQHGADGLVLLPNTRRGKLLAAKLGYRLKAAVSNDASTVSVQDGKATVKHMVYGGLAIGEERIATPYAVLTISSGTFDAAQPDASRTGETHTVEWQAPAVAITRTATQARQSNSVDLDKARLVVSVGRGIGSKENIALAEQLCKAIGAELACSRPVAENEKWMEHERYVGISNLMLKPELYLAVGISGQIQHMVGANASQTIFAINKDKNAPIFQYADYGIVGDAVKILPALTAALAR | – | – | – | – | – | 2.87 ± 0.035 | 5.9 | 8.89 ± 0.4 | – | – | – | – |
| MIDKSAFVHPTAIVEEGASIGANAHIGPFCIVGPHVEIGEGTVLKSHVVVNGHTKIGRDNEIYQFASIGEVNQDLKYAGEPTRVEIGDRNRIRESVTIHRGTVQGGGLTKVGSDNLLMINAHIAHDCTVGNRCILANNATLAGHVSVDDFAIIGGMTAVHQFCIIGAHVMVGGCSGVAQDVPPYVIAQGNHATPFGVNIEGLKRRGFSREAITAIRNAYKLIYRSGKTLDEVKPEIAELAETYPEVKAFTDFFARSTRGLIR [P0A722] | 5.73 ± 0.15 | 5.26 ± 0.2 | 5.49 ± 0.17 | 5.48 ± 0.32 | 5.59 ± 0.7 | 3.06 ± 0.068 | 5.79 ± 0.17 | 10.9 ± 0.052 | 5.52 ± 0.27 | 10.4 ± 0.94 | 5.95 ± 0.41 | 12.5 ± 0.48 |
